Laboratory results published in paper PMC3260263, “Structural Characterization of a Novel Chlamydia pneumoniae Type III Secretion-Associated Protein, Cpn0803” (PLoS ONE, 2012).
Several values for one entry are separate records, joined by “and”; a condition that tells them apart may be missing. Equal values may be shown once.

How the values were obtained:
[1] = molecular target: the molecule itself; test: SEC; Superdex S200 10/300 GL, 20 mM Tris pH 7, 100 mM KCl, 5 mg/mL protein; column standardized with LMW and HMW standards; peak fractions checked by anti-His Western blot
[2] = molecular target: GST-CdsF (Chlamydia pneumoniae CWL029); test: ELISA; glutathione plate assay: GST fusion captured from lysate on glutathione coated plates, bacterial lysate over-expressing the His-tagged protein added, 4°C 2 hours; washed with 500 mM NaCl, 0.1% Triton X-100, 50 mM TRIS-HCl pH 7.5; anti-6xHis antibody, HRP, OPD, absorbance at 450 nm; positive if two standard deviations above GST alone
[3] = molecular target: GST-CdsN (Chlamydia pneumoniae CWL029); test: as above
[4] = molecular target: GST-CdsQ (Chlamydia pneumoniae CWL029); test: as above

B1: His-Cpn0803 (natural protein)
chain: MAAKTKTLELEDNVFLLLEGNLKRIFATPIGYTTFREFQNVVFNCANGQQEIANFFFEMLINGKLTQELAPQQKQAAHSLIAEFMMPIRVAKDIHERGEFINFITSDMLTQQERCIFLNRLARVDGQEFLLMTDVQNTCHLIRHLLARLLEAQKNPVGEKNLQEIQEEITSLKNHFDELTKALQ
notes: Cpn0803 of Chlamydia pneumoniae CWL029 (ortholog of C. trachomatis CT584), 184 amino acids; Hexamer and dimer in solution by gel filtration; a SeMet derivative was used for phasing only; also called recombinant His-Cpn0803; full-length Cpn0803; source: E. coli, over-expressed, in lysate (glutathione plate assay, GST pull-down); E. coli, purified on a column eluted with 300 mM imidazole …
With B1 the “stoichiometry N” value [1] was 6 and 2, the absorbance (450 nm) (absorbance units) [2] was 0.36 and the absorbance (450 nm) (absorbance units) [3] was 0.38. It also gave an absorbance (450 nm) (absorbance units) [4] of 0.41.
